Measured values from publication PMC6660512.

What was measured:
[1] = target: Nogo-A Δ20 (Rattus norvegicus) (UniProt Q9JK11); settings: cited from earlier work
[2] = target: His-tagged Nogo-A-Δ20; test: MST; Nanotemper Monolith NT.115, as described in ref. 29; SPARC and Nogo-A-Δ20 (Suppl. Figure 4m)

Chain of UniProt Q9JK11 (Q9JK11 544-725, stated change not applied): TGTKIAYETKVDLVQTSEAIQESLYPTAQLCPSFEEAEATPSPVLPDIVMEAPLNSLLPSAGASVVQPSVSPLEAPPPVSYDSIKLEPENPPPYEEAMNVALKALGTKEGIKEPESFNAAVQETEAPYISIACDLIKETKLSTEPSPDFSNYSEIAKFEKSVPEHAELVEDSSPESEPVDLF

Kd [2]	Molecule	Kd [1]
–	S1PR2 (from UniProt O95136)	280 nM
150 nM	SPARC (construct used for microscale thermophoresis not stated) (natural protein) APQQEALPDETEVVEETVAEVTEVSVGANPVQVEVGEFDDGAEETEEEVVAENPCQNHHCKHGKVCELDENNTPMCVCQDPTSCPAPIGEFEKVCSNDNKTFDSSCHFFATKCTLEGTKKGHKLHLDYIGPCKYIPPCLDSELTEFPLRMRDWLKNVLVTLYERDEDNNLLTEKQKLRVKKIHENEKRLEAGDHPVELLARDFEKNYNMYIFPVHWQFGQLDQHPIDGYLSHTELAPLRAPLIPMEHCTTRFFETCDLDNDKYIALDEWAGCFGIKQKDIDKDLVI	–
